Data on 18 molecules can be found in patent US20120213794A1 (published 2012).

Residue numbers refer to the chain shown, from its start.

B1: AX212 IgG2 (antibody, V domains shown)
VH: QVQLLESGGGLVQPGGSLRLSCKASGYTFSSYSFSWVRQAPGKGLEWIGYIDPGSGGTKYNQKFQGKATISRDNSKNTLYLQMNSLRAEDTAVYYCARQRVGYSLDYWGQGTLVTVSS
VL: EIVLTQSPATLSLSPGERATITCRASQYVGSYLNWYQQKPGQAPRLLIYDASNRATGIPARFSGSGSGTDFTLTISSLEPEDFAVYYCQVWDSSPPVVFGGGTKVEIK
B2: AX114 IgG2 (antibody, V domains shown)
VH: EVQLLESGGGLVQPGGSLRLSCKASGYTFSSYGMYWVRQAPGKGLEWIGWIDPGSGGTKYNEKFKGKATISRDNSKNTLYLQMNSLRAEDTAVYYCARERYGYYFDYWGQGTLVTVSS
VL: B1 VL with S31T, V98A
B3: AX137 IgG2 (antibody, V domains shown)
VH: B2 VH
VL: B1 VL with V29I, V90A
B4: AX210 IgG2 (antibody, V domains shown)
VH: B1 VH with F34I, S35Y, Y50W, S55N, K59R, G66S, Q99A
VL: B1 VL
B5: AX211 IgG2 (antibody, V domains shown)
VH: B1 VH with S31R, Y32Q, S33G, S35T, Y50W, S55N, K59R, Q62E, Q65K, Q99Y
VL: B1 VL
B6: AX132 IgG2 (antibody)
heavy: EVQLLESGGGLVQPGGSLRLSCKASGYTFSSYGMYWVRQAPGKGLEWIGWIDPGSGGTKYNEKFKGKATISRDNSKNTLYLQMNSLRAEDTAVYYCARERYGYYFDYWGQGTLVTVSSASTKGPSVFPLAPCSRSTSESTAALGCLVKDYFPEPVTVSWNSGALTSGVHTFPAVLQSSGLYSLSSVVTVPSSNFGTQTYTCNVDHKPSNTKVDKTVERKCCVECPPCPAPPVAGPSVFLFPPKPKDTLMISRTPEVTCVVVDVSHEDPEVQFNWYVDGVEVHNAKTKPREEQFNSTFRVVSVLTVVHQDWLNGKEYKCKVSNKGLPAPIEKTISKTKGQPREPQVYTLPPSREEMTKNQVSLTCLVKGFYPSDIAVEWESNGQPENNYKTTPPMLDSDGSFFLYSKLTVDKSRWQQGNVFSCSVMHEALHNHYTQKSLSLSPGK
VL: B1 VL
B7: AX213 IgG2 (antibody, V domains shown)
VH: B2 VH with S31R, M34I, Y35N, W50R, S55N, K59R, E99A, R100N, Y101D, Y104S
VL: EIVLTQSPATLSLSPGERATITCRASQYVGSYLNWYQQKPGQAPRLLIYDASNRATGIPARFSGSGSGTDFTLTISSLEPEDFAVYYCQVWDSSPPVVFGGGTKVEIKR
B8: AX139 Fab (Fab, V domains shown)
VH: B2 VH
VL: B1 VL with S52A
B9: AX137 Fab (Fab, V domains shown)
VH: B2 VH
VL: B1 VL with V29I, V90A
B10: AX114 Fab (Fab, V domains shown)
VH: B2 VH
VL: B1 VL with S31T, V98A
B11: AX213 Fab (Fab, V domains shown)
VH: QVQLLESGGGLVQPGGSLRLSCKASGYTFSRYGINWVRQAPGKGLEWIGRIDPGNGGTRYNEKFKGKATISRDNSKNTLYLQMNSLRAEDTAVYYCARANDGYSFDYWGQGTLVTVSS
VL: B7 VL
B12: AX132 Fab (Fab, V domains shown)
VH: B2 VH
VL: B7 VL
B13: AX114 IgG2 (antibody, V domains shown)
VH: B2 VH
VL: B1 VL with S31T, V98A
B14: AX210 IgG2 (antibody, V domains shown)
VH: B1 VH with F34I, S35Y, Y50W, S55N, K59R, G66S, Q99A
VL: B1 VL
B15: AX211 IgG2 (antibody, V domains shown)
VH: B11 VH with Y32Q, I34F, N35T, R50W, A99Y, N100R, D101V, F105L
VL: B1 VL
B16: AX212 IgG2 (antibody, V domains shown)
VH: B1 VH
VL: B1 VL
B17: AX132 IgG2 (antibody)
heavy: B6 heavy
light: EIVLTQSPATLSLSPGERATITCRASQYVGSYLNWYQQKPGQAPRLLIYDASNRATGIPARFSGSGSGTDFTLTISSLEPEDFAVYYCQVWDSSPPVVFGGGTKVEIKRTVAAPSVFIFPPSDEQLKSGTASVVCLLNNFYPREAKVQWKVDNALQSGNSQESVTEQDSKDSTYSLSSTLTLSKADYEKHKVYACEVTHQGLSSPVTKSFNRGEC
B18: AX213 IgG2 (antibody, V domains shown)
VH: B11 VH with Q1E
VL: B7 VL

T2 sequence (A8T666 31-692 limits assumed): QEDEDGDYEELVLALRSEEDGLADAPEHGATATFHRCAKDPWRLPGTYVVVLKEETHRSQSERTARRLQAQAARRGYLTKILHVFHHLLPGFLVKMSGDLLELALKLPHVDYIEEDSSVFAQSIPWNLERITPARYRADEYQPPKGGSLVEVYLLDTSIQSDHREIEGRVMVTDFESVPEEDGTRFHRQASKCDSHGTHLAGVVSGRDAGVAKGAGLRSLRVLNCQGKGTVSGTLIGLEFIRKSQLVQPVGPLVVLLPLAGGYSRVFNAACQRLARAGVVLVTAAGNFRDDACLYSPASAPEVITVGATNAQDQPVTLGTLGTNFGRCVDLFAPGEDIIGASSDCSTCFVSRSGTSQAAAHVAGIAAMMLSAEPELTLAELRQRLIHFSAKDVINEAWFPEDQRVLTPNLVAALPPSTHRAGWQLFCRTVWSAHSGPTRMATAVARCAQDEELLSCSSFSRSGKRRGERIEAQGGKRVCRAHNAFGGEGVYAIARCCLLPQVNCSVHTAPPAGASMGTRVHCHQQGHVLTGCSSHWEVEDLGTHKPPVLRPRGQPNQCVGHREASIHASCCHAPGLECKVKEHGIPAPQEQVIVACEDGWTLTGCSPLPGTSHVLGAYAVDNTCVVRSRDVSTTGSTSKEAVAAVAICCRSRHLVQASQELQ

One assay concerns the target T1, human PCSK9 (human, UniProt Q8NBP7 31-692). Nature of the assay: cell-based or functional assay.
T1 sequence (Q8NBP7 31-692 limits assumed): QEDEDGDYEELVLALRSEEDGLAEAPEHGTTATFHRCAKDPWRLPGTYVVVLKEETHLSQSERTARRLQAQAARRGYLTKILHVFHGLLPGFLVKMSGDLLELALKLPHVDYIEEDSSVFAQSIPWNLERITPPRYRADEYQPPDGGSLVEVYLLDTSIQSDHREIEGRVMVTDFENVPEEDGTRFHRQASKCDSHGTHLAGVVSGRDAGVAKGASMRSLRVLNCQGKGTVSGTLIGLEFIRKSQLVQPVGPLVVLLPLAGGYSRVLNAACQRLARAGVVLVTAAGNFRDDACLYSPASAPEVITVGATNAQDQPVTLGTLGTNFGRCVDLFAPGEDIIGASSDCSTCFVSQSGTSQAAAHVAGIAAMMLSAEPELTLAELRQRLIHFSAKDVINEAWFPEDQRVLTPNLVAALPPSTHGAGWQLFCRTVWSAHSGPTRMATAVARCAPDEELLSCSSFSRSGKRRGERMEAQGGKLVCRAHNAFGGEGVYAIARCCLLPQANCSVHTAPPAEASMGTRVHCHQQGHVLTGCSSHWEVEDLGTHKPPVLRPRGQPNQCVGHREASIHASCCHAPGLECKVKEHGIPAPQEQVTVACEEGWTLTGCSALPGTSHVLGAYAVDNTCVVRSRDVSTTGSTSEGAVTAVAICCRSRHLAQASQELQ
Consider B1, for which the “IgG2 IC50 (nM), inhibition of PCSK9 (LDL uptake assay)” value (“IgG2 IC50 (nM), inhibition of PCSK9” for short) was found to be 9.5 nM.

Take B2: the “IgG2 IC50 (nM), inhibition of PCSK9” value worked out at 36.6 nM.

B3: the “IgG2 IC50 (nM), inhibition of PCSK9” value came out at 9.8 nM.

In the case of B4, the “IgG2 IC50 (nM), inhibition of PCSK9” value turned out to be 6.5 nM.

On to B5, for which the “IgG2 IC50 (nM), inhibition of PCSK9” value was found to be 7.5 nM.

Turning to B6, the “IgG2 IC50 (nM), inhibition of PCSK9” value was 8.9 nM.

Consider B7, for which the “IgG2 IC50 (nM), inhibition of PCSK9” value stood at 11.1 nM.

The next assay concerns the target T2, rhesus PCSK9 (rhesus, UniProt A8T666 31-692, limits assumed). Briefly: cell-based or functional assay.
Consider B1, for which the “IgG2 IC50 (nM), inhibition of PCSK9” value was 4.7 nM.

Regarding B2, the “IgG2 IC50 (nM), inhibition of PCSK9” value was 14.4 nM.

Consider B3, for which the “IgG2 IC50 (nM), inhibition of PCSK9” value was found to be 10 nM.

For the molecule B4, the “IgG2 IC50 (nM), inhibition of PCSK9” value came to 9.7 nM.

As to B5, the “IgG2 IC50 (nM), inhibition of PCSK9” value stood at 4.4 nM.

On to B6, for which the “IgG2 IC50 (nM), inhibition of PCSK9” value was determined as 11.5 nM.

With B7, the “IgG2 IC50 (nM), inhibition of PCSK9” value was determined as 10.2 nM.

In the next assay the target is T3, murine PCSK9 (mouse, UniProt Q80W65 35-694, limits assumed). Nature of the assay: cell-based or functional assay.
T3 sequence (Q80W65 35-694 limits assumed): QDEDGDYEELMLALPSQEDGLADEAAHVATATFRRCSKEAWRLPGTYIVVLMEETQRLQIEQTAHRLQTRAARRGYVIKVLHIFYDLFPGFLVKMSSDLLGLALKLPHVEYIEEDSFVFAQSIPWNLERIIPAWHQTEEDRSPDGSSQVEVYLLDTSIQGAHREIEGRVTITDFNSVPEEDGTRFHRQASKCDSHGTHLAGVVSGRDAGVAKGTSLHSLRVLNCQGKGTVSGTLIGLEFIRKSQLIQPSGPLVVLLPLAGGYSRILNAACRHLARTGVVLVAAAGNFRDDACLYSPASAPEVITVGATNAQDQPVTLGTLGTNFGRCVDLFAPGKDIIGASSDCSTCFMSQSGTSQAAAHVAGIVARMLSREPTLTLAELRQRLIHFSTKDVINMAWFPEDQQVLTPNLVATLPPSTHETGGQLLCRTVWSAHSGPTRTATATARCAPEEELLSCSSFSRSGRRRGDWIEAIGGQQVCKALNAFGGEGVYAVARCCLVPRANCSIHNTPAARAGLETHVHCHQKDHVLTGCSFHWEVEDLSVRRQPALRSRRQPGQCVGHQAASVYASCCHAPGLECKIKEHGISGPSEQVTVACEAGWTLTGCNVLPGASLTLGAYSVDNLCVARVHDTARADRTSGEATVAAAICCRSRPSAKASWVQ
For the molecule B1, the “IgG2 IC50 (nM), inhibition of PCSK9” value stood at 7.3 nM.

In the case of B2, the “IgG2 IC50 (nM), inhibition of PCSK9” value was found to be 27.4 nM.

As for B3, the “IgG2 IC50 (nM), inhibition of PCSK9” value is 5.3 nM.

B4: the “IgG2 IC50 (nM), inhibition of PCSK9” value came out at 15.9 nM.

For the molecule B5, the “IgG2 IC50 (nM), inhibition of PCSK9” value was found to be 11.1 nM.

Consider B6, for which the “IgG2 IC50 (nM), inhibition of PCSK9” value is 9.4 nM.

Regarding B7, the “IgG2 IC50 (nM), inhibition of PCSK9” value turned out to be 7 nM.

Another assay deals with T1, human PCSK9. Nature of the assay: cell-based or functional assay. This is another data set of the same source.
For the molecule B8, the “Fab IC50 (nM), inhibition of PCSK9 on LDL uptake” value (from here on “Fab IC50 (nM), inhibition”) stood at 37.7 nM.

Regarding B9, the “Fab IC50 (nM), inhibition” value turned out to be 74.4 nM.

Regarding B10, the “Fab IC50 (nM), inhibition” value amounted to 179 nM.

In the case of B11, the “Fab IC50 (nM), inhibition” value stood at 14.7 nM.

On to B12, for which the “Fab IC50 (nM), inhibition” value stood at 62.2 nM.

A further assay deals with T2, rhesus PCSK9. Nature of the assay: cell-based or functional assay. This is another data set of the same source.
In the case of B10, the “Fab IC50 (nM), inhibition” value stood at 194 nM.

For a further assay, the target named is T3, murine PCSK9. Nature of the assay: cell-based or functional assay. This is another data set of the same source.
As for B8, the “Fab IC50 (nM), inhibition” value is 22.9 nM.

B9: the “Fab IC50 (nM), inhibition” value is 27.4 nM.

Consider B10, for which the “Fab IC50 (nM), inhibition” value worked out at 326 nM.

B12: the “Fab IC50 (nM), inhibition” value stood at 26.9 nM.

The target of a further assay is T4, Mouse PCSK9 (mouse, UniProt Q80W65 35-694, limits assumed).
T4 construct: Column head prints 'Mouse 9'; also called Mouse 9; mPCSK9
T4 sequence (Q80W65 35-694 limits assumed): as above
Briefly: Biacore (SPR), IgG2 captured, PCSK9 as analyte. For orientation: Surface plasmon resonance follows binding to a sensor surface in real time, without labels.
In general, Kd refers to a measure of binding affinity in units of concentration. Low values mean higher affinity, high ones lower affinity. Molecule B13 showed a Kd of 11.2 nM.

B14 registered a Kd of 3.6 nM. Compared with the last molecule, the Kd is about 3.1-fold lower.

In turn, B15 had a Kd of 1.66 nM.

B16 displayed a Kd of 2.74 nM.

B17: the Kd is 2.76 nM.

As to B18, the Kd is 3.25 nM.

In the next assay the target is rat PCSK9 (rat, UniProt P59996 31-691, limits assumed). Briefly: Biacore (SPR), IgG2 captured, PCSK9 as analyte.
Sequence of rat PCSK9 (P59996 31-691 limits assumed): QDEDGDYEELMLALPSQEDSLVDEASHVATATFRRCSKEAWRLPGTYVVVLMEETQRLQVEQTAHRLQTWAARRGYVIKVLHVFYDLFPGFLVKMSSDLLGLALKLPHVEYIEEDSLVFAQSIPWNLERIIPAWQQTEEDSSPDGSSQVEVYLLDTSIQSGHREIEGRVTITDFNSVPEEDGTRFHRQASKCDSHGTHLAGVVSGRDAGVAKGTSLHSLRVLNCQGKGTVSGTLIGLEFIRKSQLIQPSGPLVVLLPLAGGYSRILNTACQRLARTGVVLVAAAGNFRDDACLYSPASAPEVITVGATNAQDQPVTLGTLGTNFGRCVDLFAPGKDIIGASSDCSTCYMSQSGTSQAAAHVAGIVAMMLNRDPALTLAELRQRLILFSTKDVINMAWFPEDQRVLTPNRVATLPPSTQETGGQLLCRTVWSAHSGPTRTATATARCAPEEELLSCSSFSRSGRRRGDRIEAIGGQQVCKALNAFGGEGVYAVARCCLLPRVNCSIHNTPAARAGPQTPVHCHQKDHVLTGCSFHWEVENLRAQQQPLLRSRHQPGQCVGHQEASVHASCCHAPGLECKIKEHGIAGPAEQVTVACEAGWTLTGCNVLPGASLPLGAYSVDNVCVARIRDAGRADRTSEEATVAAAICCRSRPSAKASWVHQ
Regarding B17, the Kd is around 100 nM.

For another assay, the target named is T5, Rhesus PCSK9 (rhesus, UniProt A8T666 31-692, limits assumed).
T5 construct: also called rhPCSK9
T5 sequence (A8T666 31-692 limits assumed): as the sequence (A8T666 31-692 limits assumed) above
Nature of the assay: Biacore (SPR), IgG2 captured, PCSK9 as analyte.
B13 displayed a Kd of 11.6 nM.

For the molecule B14, the Kd is 0.944 nM. Compared with the last molecule, the Kd is about 12-fold lower.

Consider B15, for which the Kd is 0.493 nM.

B16 displayed a Kd of 0.774 nM. Against the preceding molecule, the Kd is about 1.6-fold higher.

Molecule B18 came in with a Kd of 1.89 nM. Against the preceding molecule, the Kd is about 2.4-fold higher.

Another assay addresses T6, human PCSK9 (human, UniProt Q8NBP7 31-692).
T6 construct: also called hPCSK9
Nature of the assay: Biacore (SPR), IgG2 captured, PCSK9 as analyte.
T6 sequence (Q8NBP7 31-692 limits assumed): as the sequence (Q8NBP7 31-692 limits assumed) above
Turning to B13, the Kd worked out at 24 nM.

B14: binding was put at a Kd of 2.64 nM.

Regarding B15, the Kd was 1.63 nM.

B16 had a Kd of 2.12 nM.

Molecule B18 registered a Kd of 2.07 nM.
